Data reported in patent US20240115603A1 (Zymeworks, published 2024).

B6: G-CSFR(Ig-CRH)E design 134 (R41E_R141E_R167D), purified, tag cleaved (receptor)
chain: GSMGCGHISVSAPIVHLGDPITASCIIKQNCSHLDPEPQILWELGAELQPGGRQQRLSDGTQESIITLPHLNHTQAFLSCSLNWGNSLQILDQVELRAGYPPAIPHNLSCLMNLTTSSLICQWEPGPETHLPTSFTLKSFKSEGNCQTQGDSILDCVPKDGQSHCSIPDKHLLLYQNMGIWVQAENALGTSMSPQLCLDPMDVVKLEPPMLRTMDPSPEAAPPQAGCLQLSWEPWQPGLHINQKCELRHKPQRGEASWALVGPLPLEALQYELCGLLPATAYTLQIRCIRWPLPGHWSDWSPSLELRTTE
notes: also called Design 134 G-CSFR(Ig-CRH)E; design 137 G-CSFR(Ig-CRH)E

How the values were obtained:
[1] = target: T1, WT G-CSFR(Ig-CRH), purified, tag cleaved (human, UniProt Q99062 26-331); assay: SPR (Biacore T200)
T1 construct: also called G-CSFRWT; wild type G-CSFR ECD
T1 chain: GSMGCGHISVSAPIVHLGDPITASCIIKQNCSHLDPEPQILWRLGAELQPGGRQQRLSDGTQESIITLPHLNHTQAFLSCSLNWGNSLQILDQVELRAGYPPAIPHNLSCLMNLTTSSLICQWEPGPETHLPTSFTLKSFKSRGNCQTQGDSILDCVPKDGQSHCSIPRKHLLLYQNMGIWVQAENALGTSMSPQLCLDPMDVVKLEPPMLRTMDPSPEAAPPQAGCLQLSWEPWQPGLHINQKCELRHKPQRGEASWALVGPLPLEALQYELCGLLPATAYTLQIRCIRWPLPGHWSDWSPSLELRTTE

[2] = target: T2, G-CSFR(Ig-CRH)E design 9, purified, tag cleaved (human, UniProt Q99062 26-331); assay: SPR (Biacore T200), G-CSFR(Ig-CRH)E amine-coupled, G-CSFE injected; KD relative to WT:WT control (larger = weaker)
T2 construct: SPR protein; also called Design 9 G-CSFR(Ig-CRH)E
T2 chain: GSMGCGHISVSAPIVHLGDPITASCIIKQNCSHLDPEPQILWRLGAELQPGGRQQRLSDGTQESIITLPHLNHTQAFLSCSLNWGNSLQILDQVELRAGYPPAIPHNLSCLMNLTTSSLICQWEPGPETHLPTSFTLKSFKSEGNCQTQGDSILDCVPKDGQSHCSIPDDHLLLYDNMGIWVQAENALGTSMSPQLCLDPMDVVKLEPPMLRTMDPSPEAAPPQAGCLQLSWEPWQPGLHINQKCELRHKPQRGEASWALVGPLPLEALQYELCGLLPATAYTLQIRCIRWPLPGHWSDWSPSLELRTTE
Method: (§1) The SPR binding assays were carried out on a Biacore T200 instrument (GE Healthcare, Mississauga, ON, Canada) with PBS-T (PBS+0.05% (v/v) Tween 20) running buffer at a temperature of 25° C. CMS Series S sensor chip, Biacore amine coupling kit (NHS, EDC and 1 M ethanolamine), and 10 mM sodium acetate buffers were all purchased from GE Healthcare. PBS running buffer with 0.05% Tween20 (PBS-T) was purchased from Teknova Inc. (Hollister, CA).
(§2) To determine binding affinity of G-CSFE to G-CSFRE the G-CSFRE mutant was captured by standard amine coupling as described by the manufacturer (GE LifeSciences). Briefly, immediately after EDC/NHS activation, a 5 μg/mL solution of G-CSFRE in 10 mM NaOAc, pH 5.0, was injected at a flow rate of 5 μL/min until a receptor density of ˜700-900 RU was reached. The remaining active groups were quenched by a 420 s injection of 1 M ethanolamine hydrochloride-NaOH pH 8.5 at 10 μL/min. Using single-cycle kinetics, six concentrations of a two-fold dilution series of the corresponding G-CSFE mutant starting at 200 nM with a blank buffer control were sequentially injected at 25 μL/min for 300s with a 1800s dissociation phase, resulting in a set of sensorgrams with a buffer blank reference. The same sample titration was also performed on a reference cell with no variants captured. The chip was regenerated to prepare for the next injection cycle by one pulse of 10 mM glycine/HCl, pH 2.0, for 30 s at 30 μL/min.
(§3) Double-referenced sensorgrams from duplicate or triplicate repeat injections were analyzed using Biacore™ T200 Evaluation Software v3.0 and fit to the 1:1 Langmuir binding model.

[3] = target: T1, WT G-CSFR(Ig-CRH), purified, tag cleaved; assay: SPR (Biacore T200), WT G-CSFR(Ig-CRH) amine-coupled, G-CSFE injected; KD relative to WT:WT control (larger = weaker)
[4] = target: T3, G-CSFR(Ig-CRH)E design 30, purified, tag cleaved (human, UniProt Q99062 26-331); assay: SPR (Biacore T200), G-CSFR(Ig-CRH)E amine-coupled, G-CSFE injected; KD relative to WT:WT control (larger = weaker)
T3 construct: also called Design 30 G-CSFR(Ig-CRH)E
T3 chain: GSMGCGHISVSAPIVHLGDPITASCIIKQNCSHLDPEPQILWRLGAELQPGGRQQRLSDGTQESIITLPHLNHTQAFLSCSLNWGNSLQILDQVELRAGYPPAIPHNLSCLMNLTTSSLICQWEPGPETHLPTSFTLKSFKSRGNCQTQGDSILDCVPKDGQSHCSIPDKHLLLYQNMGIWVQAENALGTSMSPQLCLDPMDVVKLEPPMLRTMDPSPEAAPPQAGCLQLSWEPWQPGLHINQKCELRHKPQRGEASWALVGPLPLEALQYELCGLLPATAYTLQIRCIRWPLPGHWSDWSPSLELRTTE
Method: as §1, §2, §3

[5] = target: B6; assay: as above
Method: as §1, §2, §3

[6] = target: T4, WT G-CSF, purified, tag cleaved (human, UniProt P09919 31-206); assay: SPR (Biacore T200)
T4 construct: also called G-CSFWT
T4 sequence: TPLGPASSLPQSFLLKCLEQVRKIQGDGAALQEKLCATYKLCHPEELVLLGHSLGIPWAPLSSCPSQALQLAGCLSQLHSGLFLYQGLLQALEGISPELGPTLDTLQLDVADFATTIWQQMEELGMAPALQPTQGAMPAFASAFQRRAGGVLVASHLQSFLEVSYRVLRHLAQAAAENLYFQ

B1: G-CSFE design 9, purified, tag cleaved (ligand)
chain: TPLGPASSLPQSFLLKCLEQVRKIQGDGAALQEKLCATYKLCHPEELVLLGHSLGIPWAPLSSCPSQALQLAGCLSQLHSGLFLYQGLLQALEGISPELGPTLRTLQKDVARFATTIWRQMKELGMAPALQPTQGAMPAFASAFQRRAGGVLVASHLQSFLEVSYRVLRHLAQAAAENLYFQ
notes: also called Design 9 G-CSFE
fold weaker KD (vs WT:WT) [1]: ≥ 20 fold
KD fold change (vs WT:WT) [2]: 1.2 fold
KD fold change (vs WT:WT) [3]: 79 fold

B2: G-CSFE design 30, purified, tag cleaved (ligand)
chain: TPLGPASSLPQSFLLKCLEQVRKIQGDGAALQEKLCATYKLCHPEELVLLGHSLGIPWAPLSSCPSQALQLAGCLSQLHSGLFLYQGLLQALEGISPELGPTLDTLQKDVARFATTIWQQMEELGMAPALQPTQGAMPAFASAFQRRAGGVLVASHLQSFLEVSYRVLRHLAQAAAENLYFQ
notes: also called Design 30 G-CSFE
fold weaker KD (vs WT:WT) [1]: ≥ 20 fold
KD fold change (vs WT:WT) [4]: 11 fold
KD fold change (vs WT:WT) [3]: 20 fold

B3: G-CSFE design 117, purified, tag cleaved (ligand)
chain: TPLGPASSLPQSFLLKCLEQVRKIQGDGAALQEKLCATYKLCHPERLVLLGHSLGIPWAPLSSCPSQALQLAGCLSQLHSGLFLYQGLLQALEGISPELGPTLDTLQLDVADFATTIWQQMRRLGMAPALQPTQGAMPAFASAFQRRAGGVLVASHLQSFLEVSYRVLRHLAQAAAENLYFQ
notes: also called Design 117 G-CSFE
KD fold change (vs WT:WT) [3]: 3.4 fold

B4: G-CSFE design 134, purified, tag cleaved (ligand)
chain: TPLGPASSLPQSFLLKCLEQVRKIQGDGAALQEKLCATYKLCHPERLVLLGHSLGIPWAPLSSCPSQALQLAGCLSQLHSGLFLYQGLLQALEGISPELGPTLDTLQKDVARFATTIWQQMRRLGMAPALQPTQGAMPAFASAFQRRAGGVLVASHLQSFLEVSYRVLRHLAQAAAENLYFQ
notes: also called Design #134 G-CSFE
fold weaker affinity (vs WT:WT) [1]: ~500 fold
KD fold change (vs WT:WT) [5]: 1 fold
KD fold change (vs WT:WT) [3]: 465 fold

B5: G-CSFR(Ig-CRH)E design 130, purified, tag cleaved (receptor)
chain: GSMGCGHISVSAPIVHLGDPITASCIIKQNCSHLDPEPQILWELGAELQPGGRQQRLSDGTQESIITLPHLNHTQAFLSCSLNWGNSLQILDQVELRAGYPPAIPHNLSCLMNLTTSSLICQWEPGPETHLPTSFTLKSFKSRGNCQTQGDSILDCVPKDGQSHCSIPDKHLLLYQNMGIWVQAENALGTSMSPQLCLDPMDVVKLEPPMLRTMDPSPEAAPPQAGCLQLSWEPWQPGLHINQKCELRHKPQRGEASWALVGPLPLEALQYELCGLLPATAYTLQIRCIRWPLPGHWSDWSPSLELRTTE
notes: SPR protein; also called Design 130 G-CSFR(Ig-CRH)E
binding result [6]: no binding

B6
binding result [6]: no binding

B7: G-CSFR(Ig-CRH)E design 300, purified, tag cleaved (receptor)
chain: GSMGCGHISVSAPIVHLGDPITASCIIKQNCSHLDPEPQILWRLGAELQPGGRQQRLSDGTQESIITLPHLNHTQAKLSCSLNWGNSLQILDKVELRAGYPPAIPHNLSCLMNLTTSSLICQWEPGPETHLPTSFTLKSFKSRGNCQTQGDSILDCVPKDGQSHCSIPDKHLLLYQNMGIWVQAENALGTSMSPQLCLDPMDVVKLEPPMLRTMDPSPEAAPPQAGCLQLSWEPWQPGLHINQKCELRHKPQRGEASWALVGPLPLEALQYELCGLLPATAYTLQIRCIRWPLPGHWSDWSPSLELRTTE
notes: SPR protein; also called Design 300 G-CSFR(Ig-CRH)E
binding result [6]: no binding

B8: G-CSFR(Ig-CRH)E design 303, purified, tag cleaved (receptor)
chain: GSMGCGHISVSAPIVHLGDPITASCIIKQNCSHLDPEPQILWRLGAELQPGGRQQRLSDGTQESIITLPHLNHTQAFLSCSLNWGNSLQILDQVKLRAGYPPAIPHNLSCLMNLTTSSLICQWEPGPETHLPTSFTLKSFKSRGNCQTQGDSILDCVPKDGQSHCSIPDKHLLLYQNMGIWVQAENALGTSMSPQLCLDPMDVVKLEPPMLRTMDPSPEAAPPQAGCLQLSWEPWQPGLHINQKCELRHKPQRGEASWALVGPLPLEALQYELCGLLPATAYTLQIRCIRWPLPGHWSDWSPSLELRTTE
notes: SPR protein; also called Design 303 G-CSFR(Ig-CRH)E
binding result [6]: no binding

B9: G-CSFR(Ig-CRH)E design 304, purified, tag cleaved (receptor)
chain: GSMGCGHISVSAPIVHLGDPITASCIIKQNCSHLDPEPQILWELGAELQPGGRQQRLSDGTQESIITLPHLNHTQAFLSCSLNWGNSLQILDQVKLRAGYPPAIPHNLSCLMNLTTSSLICQWEPGPETHLPTSFTLKSFKSRGNCQTQGDSILDCVPKDGQSHCSIPDKHLLLYQNMGIWVQAENALGTSMSPQLCLDPMDVVKLEPPMLRTMDPSPEAAPPQAGCLQLSWEPWQPGLHINQKCELRHKPQRGEASWALVGPLPLEALQYELCGLLPATAYTLQIRCIRWPLPGHWSDWSPSLELRTTE
notes: SPR protein; also called Design 304 G-CSFR(Ig-CRH)E
binding result [6]: no binding

B10: G-CSFR(Ig-CRH)E design 307, purified, tag cleaved (receptor)
chain: GSMGCGHISVSAPIVHLGDPITASCIIKQNCSHLDPEPQILWELGAELQPGGRQQRLSDGTQESIITLPHLNHTQAFLSCSLNWGNSLQILDQVELRAGYPPAIPHNLSCLMNLTTSSLICQWEPGPETHLPTSFTLKSFKSRGNCQTQGDSILDCVPKDGQSHCSIPRKHLLLYQNMGIWVQAENALGTSMSPQLCLKPMKVVKLEPPMLRTMDPSPEAAPPQAGCLQLSWEPWQPGLHINQKCELRHKPQRGEASWALVGPLPLEALQYELCGLLPATAYTLQIRCIEWPLPGHWSDWSPSLELRTTE
notes: SPR protein; also called Design 307 G-CSFR(Ig-CRH)E
binding result [6]: no binding

B11: G-CSFR(Ig-CRH)E design 401, purified, tag cleaved (receptor)
chain: GSMGCGHISVSAPIVHLGDPITASCIIKQNCSHLDPEPQILWELGAELQPGGRQQRLSDGTQESIITLPHLNHTQAFLSCSLNWGNSLQILDQVELRAGYPPAIPHNLSCLMNLTTSSLICQWEPGPETHLPTSFTLKSFKSRGNCQTQGDSILDCVPKDGQSHCSIPDKHLLLYQNMGIWVQAENALGTSMSPQLCLDPMDVVKLEPPMLRTMDPSPEAAPPQAGCLQLSWEPWQPGLHINQKCELRHKPQRGEASWALVGPLPLEALQYELCGLLPATAYTLQIRCIDWPLPGHWSDWSPSLELRTTE
notes: SPR protein; also called Design 401 G-CSFR(Ig-CRH)E
binding result [6]: no binding

B12: G-CSFR(Ig-CRH)E design 402, purified, tag cleaved (receptor)
chain: GSMGCGHISVSAPIVHLGDPITASCIIKQNCSHLDPEPQILWELGAELQPGGRQQRLSDGTQESIITLPHLNHTQAFLSCSLNWGNSLQILDQVELRAGYPPAIPHNLSCLMNLTTSSLICQWEPGPETHLPTSFTLKSFKSRGNCQTQGDSILDCVPKDGQSHCSIPEKHLLLYENMGIWVQAENALGTSMSPQLCLDPMDVVKLEPPMLRTMDPSPEAAPPQAGCLQLSWEPWQPGLHINQKCELRHKPQRGEASWALVGPLPLEALQYELCGLLPATAYTLQIRCIEWPLPGHWSDWSPSLELRTTE
notes: SPR protein; also called Design 402 G-CSFR(Ig-CRH)E
binding result [6]: no binding
